Data taken from patent US6383761B1, “Methods and compositions for identifying modulators of G-protein-coupled receptors” (The Regents of the University of California, priority 1997, dated 2002).

What was measured:
m2 muscarinic receptor = target: T1, m2 muscarinic receptor (Homo sapiens, UniProt P08172); assay: PI hydrolysis assay (IP1 accumulation) in COS-7 cells co-transfected with receptor and Gαq construct; type: cell-based; conditions: carbachol 100 μM, pertussis toxin pretreatment 500 ng/ml
T1 sequence (P08172 1-466): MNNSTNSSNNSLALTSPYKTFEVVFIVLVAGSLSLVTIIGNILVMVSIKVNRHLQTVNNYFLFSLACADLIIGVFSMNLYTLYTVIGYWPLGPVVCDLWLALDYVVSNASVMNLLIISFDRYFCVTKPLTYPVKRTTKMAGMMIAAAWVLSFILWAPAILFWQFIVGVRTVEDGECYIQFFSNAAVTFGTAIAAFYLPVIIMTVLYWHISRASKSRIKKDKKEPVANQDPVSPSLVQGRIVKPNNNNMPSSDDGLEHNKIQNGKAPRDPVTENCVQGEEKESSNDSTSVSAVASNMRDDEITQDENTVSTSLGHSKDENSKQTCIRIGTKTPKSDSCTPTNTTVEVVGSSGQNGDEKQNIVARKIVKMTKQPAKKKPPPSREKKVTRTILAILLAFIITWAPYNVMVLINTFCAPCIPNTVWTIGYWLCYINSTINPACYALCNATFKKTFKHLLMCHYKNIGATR

D2 dopamine receptor = target: T2, D2 dopamine receptor (Homo sapiens, UniProt P14416); type: cell-based
T2 construct: expressed in transfected cells; host or cells: COS-7
T2 sequence (P14416 whole entry): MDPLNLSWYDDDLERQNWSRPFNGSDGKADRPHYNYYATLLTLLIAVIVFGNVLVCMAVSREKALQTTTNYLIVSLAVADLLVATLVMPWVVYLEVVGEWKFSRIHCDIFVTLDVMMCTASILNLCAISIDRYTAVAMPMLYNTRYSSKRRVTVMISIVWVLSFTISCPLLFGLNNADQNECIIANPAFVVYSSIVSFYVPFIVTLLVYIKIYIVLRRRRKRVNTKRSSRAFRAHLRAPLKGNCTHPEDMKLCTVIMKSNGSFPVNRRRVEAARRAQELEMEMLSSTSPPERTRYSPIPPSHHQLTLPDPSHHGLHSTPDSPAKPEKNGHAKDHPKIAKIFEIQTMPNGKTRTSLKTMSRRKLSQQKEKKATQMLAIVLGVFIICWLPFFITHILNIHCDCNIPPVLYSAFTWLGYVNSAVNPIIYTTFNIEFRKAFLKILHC

pertussis toxin
block of agonist-induced PI response (m2 muscarinic receptor; m2 receptor co-expressed with −6q): partly blocked
block of agonist-induced increase in inositol phosphate production (m2 muscarinic receptor; m2 receptor with vector DNA or WTq): almost completely blocked
block of agonist-induced PI response (D2 dopamine receptor): partly blocked
block of agonist-induced increase in inositol phosphate production (D2 dopamine receptor): almost completely blocked
